Experiments:
Pdr5 [1] = molecular target: T1, Pdr5 (Saccharomyces cerevisiae, UniProt P33302); experiment: enzyme-coupled (PK/LDH, NADH) ATPase assay; format: biochemical; conditions: 4 mM ATP, 5 mM MgCl2, 300 mM Tris-glycine pH 8, 30 °C, 0.004% trans-PCC-α-M
T1 construct: full-length, N-terminal 14x His tag with protease cleavage site; homologous expression in S. cerevisiae (pdr1-3), solubilized and purified in trans-PCC-α-M by IMAC and SEC

Pdr5 [2] = molecular target: T1, Pdr5; experiment: inhibition of ATPase, colorimetric phosphate release; format: biochemical
Text: inhibition of ATPase, colorimetric phosphate release on Pdr5

[3] = system: Nc1ncnc2c1ncn2[C@@H]1O[C@H](COP(=O)(O)OP(=O)(O)OP(=O)(O)O)[C@@H](O)[C@H]1O; experiment: purified protein; conditions: 10 mM MgCl2, 300 mM Tris-glycine pH 9.5, 0.004% trans-PCC-α-M, 20 min, 0-5 mM NTP
[4] = system: Nc1nc2c(ncn2[C@@H]2O[C@H](COP(=O)(O)OP(=O)(O)OP(=O)(O)O)[C@@H](O)[C@H]2O)c(=O)[nH]1; experiment: purified protein; conditions: 10 mM MgCl2, 300 mM Tris-glycine pH 9.5, 0.004% trans-PCC-α-M, 20 min, 0-5 mM NTP
[5] = system: Nc1ccn([C@@H]2O[C@H](COP(=O)(O)OP(=O)(O)OP(=O)(O)O)[C@@H](O)[C@H]2O)c(=O)n1; experiment: purified protein; conditions: 10 mM MgCl2, 300 mM Tris-glycine pH 9.5, 0.004% trans-PCC-α-M, 20 min, 0-5 mM NTP
[6] = system: O=c1ccn([C@@H]2O[C@H](COP(=O)(O)OP(=O)(O)OP(=O)(O)O)[C@@H](O)[C@H]2O)c(=O)[nH]1; experiment: purified protein; conditions: 10 mM MgCl2, 300 mM Tris-glycine pH 9.5, 0.004% trans-PCC-α-M, 20 min, 0-5 mM NTP

T1 sequence (P33302 whole entry): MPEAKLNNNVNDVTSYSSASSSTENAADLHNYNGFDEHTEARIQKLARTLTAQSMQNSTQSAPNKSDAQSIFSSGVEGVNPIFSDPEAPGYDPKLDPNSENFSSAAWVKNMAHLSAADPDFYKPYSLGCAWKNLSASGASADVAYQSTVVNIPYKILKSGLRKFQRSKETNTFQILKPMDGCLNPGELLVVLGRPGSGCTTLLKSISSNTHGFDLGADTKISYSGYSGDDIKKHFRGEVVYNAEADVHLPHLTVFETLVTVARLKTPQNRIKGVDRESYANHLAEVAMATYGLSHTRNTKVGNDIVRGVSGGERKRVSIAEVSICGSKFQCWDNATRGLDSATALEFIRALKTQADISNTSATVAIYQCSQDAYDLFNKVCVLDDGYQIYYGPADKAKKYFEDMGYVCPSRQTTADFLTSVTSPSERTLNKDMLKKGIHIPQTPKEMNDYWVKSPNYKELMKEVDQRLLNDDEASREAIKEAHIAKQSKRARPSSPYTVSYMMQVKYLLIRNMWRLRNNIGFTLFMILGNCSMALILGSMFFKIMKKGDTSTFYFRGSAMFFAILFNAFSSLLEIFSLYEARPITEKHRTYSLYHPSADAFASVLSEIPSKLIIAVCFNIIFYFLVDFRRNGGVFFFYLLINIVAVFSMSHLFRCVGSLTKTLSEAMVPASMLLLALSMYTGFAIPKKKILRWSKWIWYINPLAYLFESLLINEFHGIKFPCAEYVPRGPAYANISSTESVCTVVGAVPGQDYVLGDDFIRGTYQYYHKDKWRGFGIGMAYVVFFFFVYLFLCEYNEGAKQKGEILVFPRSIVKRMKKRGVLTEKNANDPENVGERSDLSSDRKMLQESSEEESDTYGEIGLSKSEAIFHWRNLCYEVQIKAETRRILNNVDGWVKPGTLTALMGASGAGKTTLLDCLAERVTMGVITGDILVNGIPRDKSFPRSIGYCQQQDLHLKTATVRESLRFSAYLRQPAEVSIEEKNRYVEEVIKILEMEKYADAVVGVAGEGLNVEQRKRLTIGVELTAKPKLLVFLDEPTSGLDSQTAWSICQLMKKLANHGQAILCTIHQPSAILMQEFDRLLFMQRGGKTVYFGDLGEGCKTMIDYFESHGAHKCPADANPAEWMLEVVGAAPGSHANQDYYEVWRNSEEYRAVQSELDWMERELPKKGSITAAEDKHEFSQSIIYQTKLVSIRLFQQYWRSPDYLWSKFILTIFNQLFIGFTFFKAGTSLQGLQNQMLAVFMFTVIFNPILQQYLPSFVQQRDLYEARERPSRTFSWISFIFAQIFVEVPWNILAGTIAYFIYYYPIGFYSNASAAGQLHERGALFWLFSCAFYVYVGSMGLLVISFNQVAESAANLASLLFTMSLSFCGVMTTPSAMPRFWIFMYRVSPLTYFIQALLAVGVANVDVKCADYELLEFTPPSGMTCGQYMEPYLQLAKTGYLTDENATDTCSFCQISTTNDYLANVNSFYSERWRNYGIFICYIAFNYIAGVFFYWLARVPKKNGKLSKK

With `Nc1ncnc2c1ncn2[C@@H]1O[C@H](COP(=O)(O)O)[C@@H](O)[C@H]1O` [AMP] the “maximum inhibition at 2 mM AMP” value (Pdr5 [1]) was ~ 20%.

Molecule `CC(=O)N1CCN(c2ccc(OCC3COC(Cn4ccnc4)(c4ccc(Cl)cc4Cl)O3)cc2)CC1` (stereo not drawn) [ketoconazole] has a Ki (Pdr5 [2]) of 22.7 ± 2.1 µM.

Molecule `CCN=c1cc2oc3cc(NCC)c(C)cc3c(-c3ccccc3C(=O)OCC)c-2cc1C` [rhodamine 6 G] has a Ki (Pdr5 [2]) of 3.2 ± 0.2 µM.

For Pdr5 (Saccharomyces cerevisiae S288C), the Km [3] was 440 ± 50 µM, the Vmax [3] was 0.208 µmol/min/mg and the Vmax/Km [3] was 500 µL/min/mg. For the same molecule, the Km [4] was 1610 ± 300 µM, the Vmax [4] was 0.106 µmol/min/mg and the Vmax/Km [4] was 100 µL/min/mg. The Km [5] was 1620 ± 250 µM, the Vmax [5] was 0.385 µmol/min/mg and the Vmax/Km [5] was 200 µL/min/mg. The Km [6] was 590 ± 110 µM, the Vmax [6] was 0.0646 µmol/min/mg and the Vmax/Km [6] was 100 µL/min/mg.

— article PMC6533308, “In vitro NTPase activity of highly purified Pdr5, a major yeast ABC multidrug transporter” (Scientific Reports, 2019)
